Among the data in patent USRE42211, “Relating to binding proteins for recognition of DNA” (Gendaq, Limited) are Kd values, retold here.

The target in the series is anti-BCR-ABL three-finger peptide 1A-2A-3B (synthetic). As to the kind of experiment: phage ELISA after capture on streptavidin beads; +/-0.4e-7 M; Zn, PBS, 20 C. The conditions noted are these: source form inferred; label: 5'-biotin. (In general: In an ELISA, binding on a coated surface is turned into a signal by an enzyme label.)
Sequence of anti-BCR-ABL three-finger peptide 1A-2A-3B (synthetic) (chain, as listed by the source): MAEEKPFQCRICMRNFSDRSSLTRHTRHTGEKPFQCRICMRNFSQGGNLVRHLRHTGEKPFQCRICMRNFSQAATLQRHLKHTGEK

B1: p190 BCR-ABL cDNA fusion site oligo (dsDNA)
DNA 1: GAGACGCAGAAGCCCTTC
DNA 2: GAAGGGCTTCTGCGTCTC
Regarding B1, the Kd (as a rule, a measure of binding affinity in units of concentration) was found to be 620 nM.
